According to patent publication US11912794B2, “Modulation of structured polypeptide specificity” (BicycleRD Limited, priority 2011, dated 2024):
Ends that are not written are not given here.

Molecular target: T1, Biotinylated hPK (Homo sapiens, UniProt P03952)
T1 construct: IHPKA, from human plasma; purchased Innovative Research, Novi, MI, USA IHPKA; host or cells: human plasma
Experiment: Phage selections, abundance of sequences in selection outputs
Assay type: binding
Conditions: for Frequency (relative abundance in the total selection outputs): randomised WPAR motif at positions 2, 3, 4 & 5 within the 06-34-03 sequence
Description: Glycerol stocks of phage libraries were diluted to OD600=0.1 in 500 ml 2YT/chloramphenicol (30 μg/ml) cultures and phage were produced at 30° C. over night (15-16 hrs). Phage were purified and chemically modified as described in Heinis, et al., Nat Chem Biol 2009, 5 (7), 502-7 Biotinylated hPK (3 μg) (IHPKA, from human plasma, Innovative Research, Novi, MI, USA) was incubated with 50 μl pre-washed magnetic streptavidin beads (Dynal, M-280 from Invitrogen, Paisley, UK) for 10 minutes at RT. […] Blocked beads were then mixed with the blocked chemically modified phage and incubated for 30 minutes on a rotating wheel at RT. Beads were washed 8 times with washing buffer containing 0.1% Tween 20 and twice with washing buffer before incubation with 100 μl of 50 mM glycine, pH 2.2 for 5 minutes. Eluted phage were transferred to 50 μl of 1 M Tris-Cl, pH 8 for neutralization, incubated with 30 ml TG1 cells at OD600=0.4 for 90 minutes at 37° C. and the cells were plated on large 2YT/chloramphenicol plates. One or two additional rounds of panning were performed using the same procedures. In the second round of selection, neutravidin-coated magnetic beads were used to prevent the enrichment of streptavidin-specific peptides. The neutravidin beads were prepared by reacting 0.8 mg neutravidin (Pierce, Rockford, IL, USA) with 0.5 ml tosyl-activated magnetic beads (Dynal, M-280 from Invitrogen, Paisley, UK) according to the supplier's instructions.
The WPAR (SEQ ID NO: 18) motif identified from Example 1 was analysed in the context of the 06-34-03 peptide, in order to identify alternatives or improvements to the WPAR (SEQ ID NO: 18) motif. A library was constructed where positions 1, 6, 7, 8, 9 &10 of 06-34-03 were fixed and positions 2, 3, 4 & 5 were randomised (see ‘Randomisation of peptide domains—Library construction’ in Methods above). Selections against human plasma Kallikrein were performed at a variety of stringencies (see Phage selections' in Methods above). All output sequences were identified and analysed for target binding (see ‘Randomisation of peptide domains—Assay of binding of individual clones’ in Methods above). Table 17 lists each unique sequence, its relative abundance in the selection output (frequency), and a rank number according to target binding strength.

[1] = 2nd stringency from High (1st value of cell)
[2] = 3rd stringency from High (2nd value of cell)
[3] = 4th stringency from High (3rd value of cell)
[4] = 5th stringency from High (4th value of cell)

T1 sequence (P03952 20-638): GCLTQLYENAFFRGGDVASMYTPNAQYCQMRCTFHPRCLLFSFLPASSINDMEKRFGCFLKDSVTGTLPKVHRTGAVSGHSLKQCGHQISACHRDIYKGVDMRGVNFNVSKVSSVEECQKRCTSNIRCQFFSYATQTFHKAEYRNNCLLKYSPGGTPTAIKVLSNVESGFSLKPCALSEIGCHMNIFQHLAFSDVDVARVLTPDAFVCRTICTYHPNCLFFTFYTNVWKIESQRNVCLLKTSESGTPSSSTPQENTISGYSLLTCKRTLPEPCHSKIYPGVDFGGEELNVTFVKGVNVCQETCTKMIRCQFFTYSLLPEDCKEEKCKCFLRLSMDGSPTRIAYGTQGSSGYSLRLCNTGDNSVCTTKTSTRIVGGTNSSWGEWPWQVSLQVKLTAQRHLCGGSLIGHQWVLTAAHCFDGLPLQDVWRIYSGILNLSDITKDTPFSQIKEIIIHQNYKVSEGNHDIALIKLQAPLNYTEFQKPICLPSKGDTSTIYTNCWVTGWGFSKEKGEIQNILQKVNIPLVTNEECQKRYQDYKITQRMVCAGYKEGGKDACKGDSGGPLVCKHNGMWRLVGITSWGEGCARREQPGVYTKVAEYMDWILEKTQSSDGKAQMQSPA

SEQ ID NO: 74 (CSWPSRCTHQDLC; Synthetic sequence Kallikrein binder identified from selections using a randomised WPAR motif at positions 2, 3, 4 & 5 within the 06-34-03 sequence of PCT/EP2012/069898 (SEQ ID NO 58))
Frequency (relative abundance in the total selection outputs): 51

SEQ ID NO: 108 (CSWSYRCTHQDLC; Synthetic sequence Kallikrein binder identified from selections using a randomised WPAR motif at positions 2, 3, 4 & 5 within the 06-34-03 sequence of PCT/EP2012/069898 (SEQ ID NO 58))
Frequency (relative abundance in the total selection outputs): 1

SEQ ID NO: 100 (CSWPYKCTHQDLC; Synthetic sequence Kallikrein binder identified from selections using a randomised WPAR motif at positions 2, 3, 4 & 5 within the 06-34-03 sequence of PCT/EP2012/069898 (SEQ ID NO 58))
Frequency (relative abundance in the total selection outputs): 1

SEQ ID NO: 103 (CSMPYRCTHQDLC; Synthetic sequence Kallikrein binder identified from selections using a randomised WPAR motif at positions 2, 3, 4 & 5 within the 06-34-03 sequence of PCT/EP2012/069898 (SEQ ID NO 58))
Frequency (relative abundance in the total selection outputs): 2

SEQ ID NO: 99 (CSWWARCTHQDLC; Synthetic sequence Kallikrein binder identified from selections using a randomised WPAR motif at positions 2, 3, 4 & 5 within the 06-34-03 sequence of PCT/EP2012/069898 (SEQ ID NO 58))
Frequency (relative abundance in the total selection outputs): 1

SEQ ID NO: 110 (CSQVVGCTHQDLC; Synthetic sequence Kallikrein binder identified from selections using a randomised WPAR motif at positions 2, 3, 4 & 5 within the 06-34-03 sequence of PCT/EP2012/069898 (SEQ ID NO 58))
Frequency (relative abundance in the total selection outputs): 1

SEQ ID NO: 78 (CSFPFKCTHQDLC; Synthetic sequence Kallikrein binder identified from selections using a randomised WPAR motif at positions 2, 3, 4 & 5 within the 06-34-03 sequence of PCT/EP2012/069898 (SEQ ID NO 58))
Frequency (relative abundance in the total selection outputs): 4

FPYR: phage clone: FPYR at positions 2-5 within the 06-34-03 sequence, TBMB-cyclised (also: TBMB-cyclised within the 06-34-03 context, the cysteines lie outside this motif)
Relative abundance of motif in selection output [1]: 3% | Relative abundance of motif in selection output [2]: 3% | Relative abundance of motif in selection output [3]: 7% | Relative abundance of motif in selection output [4]: 16% | Relative abundance of motif in selection output (stringency High): 7% | Relative abundance of motif in selection output (stringency LOW): 4%

SEQ ID NO: 95 (CSFPWRCTHQDLC; Synthetic sequence Kallikrein binder identified from selections using a randomised WPAR motif at positions 2, 3, 4 & 5 within the 06-34-03 sequence of PCT/EP2012/069898 (SEQ ID NO 58))
Frequency (relative abundance in the total selection outputs): 1

SEQ ID NO: 87 (CSFPIRCTHQDLC; Synthetic sequence Kallikrein binder identified from selections using a randomised WPAR motif at positions 2, 3, 4 & 5 within the 06-34-03 sequence of PCT/EP2012/069898 (SEQ ID NO 58))
Frequency (relative abundance in the total selection outputs): 1

SEQ ID NO: 90 (CSYPIRCTHQDLC; Synthetic sequence Kallikrein binder identified from selections using a randomised WPAR motif at positions 2, 3, 4 & 5 within the 06-34-03 sequence of PCT/EP2012/069898 (SEQ ID NO 58))
Frequency (relative abundance in the total selection outputs): 2

WPFR: phage clone: WPFR at positions 2-5 within the 06-34-03 sequence, TBMB-cyclised (also: TBMB-cyclised within the 06-34-03 context, the cysteines lie outside this motif)
Relative abundance of motif in selection output [1]: 3% | Relative abundance of motif in selection output [2]: 0% | Relative abundance of motif in selection output [3]: 0% | Relative abundance of motif in selection output [4]: 6% | Relative abundance of motif in selection output (stringency High): 7% | Relative abundance of motif in selection output (stringency LOW): 4%

FPFR: phage clone: FPFR at positions 2-5 within the 06-34-03 sequence, TBMB-cyclised (also: TBMB-cyclised within the 06-34-03 context, the cysteines lie outside this motif)
Relative abundance of motif in selection output [1]: 19% | Relative abundance of motif in selection output [2]: 9% | Relative abundance of motif in selection output [3]: 4% | Relative abundance of motif in selection output [4]: 13% | Relative abundance of motif in selection output (stringency High): 7% | Relative abundance of motif in selection output (stringency LOW): 11%

SEQ ID NO: 81 (CSHPFRCTHQDLC; Synthetic sequence Kallikrein binder identified from selections using a randomised WPAR motif at positions 2, 3, 4 & 5 within the 06-34-03 sequence of PCT/EP2012/069898 (SEQ ID NO 58))
Frequency (relative abundance in the total selection outputs): 1

SEQ ID NO: 98 (CSYPYRCTHQDLC; Synthetic sequence Kallikrein binder identified from selections using a randomised WPAR motif at positions 2, 3, 4 & 5 within the 06-34-03 sequence of PCT/EP2012/069898 (SEQ ID NO 58))
Frequency (relative abundance in the total selection outputs): 2

SEQ ID NO: 86 (CSWPFRCTHQDLC; Synthetic sequence Kallikrein binder identified from selections using a randomised WPAR motif at positions 2, 3, 4 & 5 within the 06-34-03 sequence of PCT/EP2012/069898 (SEQ ID NO 58))
Frequency (relative abundance in the total selection outputs): 7

SEQ ID NO: 102 (CSLPIRCTHQDLC; Synthetic sequence Kallikrein binder identified from selections using a randomised WPAR motif at positions 2, 3, 4 & 5 within the 06-34-03 sequence of PCT/EP2012/069898 (SEQ ID NO 58))
Frequency (relative abundance in the total selection outputs): 1

SEQ ID NO: 77 (CSFPYRCTHQDLC; Synthetic sequence Kallikrein binder identified from selections using a randomised WPAR motif at positions 2, 3, 4 & 5 within the 06-34-03 sequence of PCT/EP2012/069898 (SEQ ID NO 58))
Frequency (relative abundance in the total selection outputs): 12
